Assay results: US20240343803A1 (SHANDONG SIMCERE BIOPHARMACEUTICAL, published 2024)
Substitutions are numbered along the chain they refer to.

T1: human PVRIG-his (AcroBiosystems, Cat NO. PVG-H52H4) (human, UniProt Q6DKI7 41-171, limits assumed)
T1 construct: also called human PVRIG protein
T1 sequence (looked up): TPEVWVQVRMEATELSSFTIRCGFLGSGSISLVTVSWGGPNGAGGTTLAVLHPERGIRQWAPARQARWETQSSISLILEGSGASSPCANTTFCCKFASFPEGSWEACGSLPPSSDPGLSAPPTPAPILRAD

T2: human PVRIG-mFc protein (Acro, PVG-H5253) (human, UniProt Q6DKI7 41-171, limits assumed)
T2 construct: extracellular domain; Bought protein; also called PVRIG-ECD-mFc; not shown: mouse Fc tag of the bought protein
T2 sequence (looked up): T1 sequence (looked up)

B1: COM701-hIgG1 (antibody, V domains shown)
VH: QVQLVQSGAEVKKPGASVKVSCKASGYTFTDYNINWVRQAPGQGLEWMGYIYPYIGGSGYAQKFQGRVTMTRDTSTSTVYMELSSLRSEDTAVYYCAREDKTARNAMDYWGQGTLVTVSS
VL: DIQMTQSPSSLSASVGDRVTITCRVSENIYSNLAWYQQKPGKAPKLLIYEATNLAEGVPSRFSGSGSGTDFTLTISSLQPEDFATYYCQHFWGTPYTFGQGTKLEIK
notes: positive control; human IgG1 format
B2: SRF813-hIgG1 (antibody, V domains shown)
VH: QVQLVQSGAEVKKPGSSVKVSCKASGGTFSSAAISWVRQAPGQGLEWMGNIIPIVGIANYAQKFQGRVTITADESTSTAYMELSSLRSEDTAVYYCARDTGRGYTRHFWFDPWGQGTLVTVSS
VL: DIQMTQSPSSLSASVGDRVTITCRASQSISSYLNWYQQKPGKAPKLLIYAASSLQSGVPSRFSGSGSGTDFTLTISSLQPEDFATYYCQQSDILYTFGGGTKVEIK
notes: as for B1
B3: PVRIG-A50-H1 (Fc fusion)
chain: EVQLVESGGGLVQPGGSLRLSCAASGFTFSYYDMSWVRQAPGKGLEWVSTINSNGGRTSYVDSVKGRFTISRDNSKNTLYLQMNSLRAEDTAVYYCVEGDPHNFGLENLSLRDFGSWGQGTMVTVSS
notes: VHH-human IgG1 Fc format is stated for the parental VHH antibodies; not restated for the humanized variants; also called A50.VH1; not shown: human IgG1 hinge-CH2-CH3 (Fc)
B4: PVRIG-A50 (Fc fusion)
chain: B3 chain with S75T, R87K, A88P, M122Q
notes: Alpaca VHH expressed as VHH-hinge-CH2-CH3 of human IgG1 (heavy-chain antibody); also called PVRIG-50; not shown: human IgG1 hinge-CH2-CH3 (Fc)
B5: PVRIG-A50-H1a (Fc fusion)
chain: B3 chain with N54D
notes: VHH-human IgG1 Fc format is stated for the parental VHH antibodies; not restated for the humanized variants; also called A50.VH1a; not shown: human IgG1 hinge-CH2-CH3 (Fc)
B6: PVRIG-A50-H1c (Fc fusion)
chain: B3 chain with N54D, S110A
notes: VHH-human IgG1 Fc format is stated for the parental VHH antibodies; not restated for the humanized variants; also called A50.VH1c; not shown: human IgG1 hinge-CH2-CH3 (Fc)
B7: PVRIG-A50-H1d (Fc fusion)
chain: B3 chain with N108S
notes: VHH-human IgG1 Fc format is stated for the parental VHH antibodies; not restated for the humanized variants; also called A50.VH1d; not shown: human IgG1 hinge-CH2-CH3 (Fc)
B8: PVRIG-A50-H1e (Fc fusion)
chain: B3 chain with G55A, N108S
notes: VHH-human IgG1 Fc format is stated for the parental VHH antibodies; not restated for the humanized variants; also called VH1e; not shown: human IgG1 hinge-CH2-CH3 (Fc)
B9: PVRIG-A50-H2a (Fc fusion)
chain: B3 chain with G55A, S75T, N108S
notes: VHH-human IgG1 Fc format is stated for the parental VHH antibodies; not restated for the humanized variants; also called A50.VH2a; not shown: human IgG1 hinge-CH2-CH3 (Fc)
B10: PVRIG-A118-H3 (Fc fusion)
chain: EVQLVESGGGLVQPGGSLRLSCAASETYFDLYVMGWYRQAPGKDRELVATITYTGSIKYVDSVKGRFTISRGDAKNSLYLQMNSLRAEDTAVYYCNADPSGLGRKVYWGQGTMVTVSS
notes: VHH-human IgG1 Fc format is stated for the parental VHH antibodies; not restated for the humanized variants; also called A118.VH3; not shown: human IgG1 hinge-CH2-CH3 (Fc)
B11: PVRIG-A118 (Fc fusion)
chain: QVQLVESGGGLVQAGGSLRLSCAASETYFDLYVMGWYRQAPGKDRELVATITYTGSIKIVDSVKDRFTISRGDAKNTVSLQMSSLKPEDTAVYFCNADPSGLGRKVYWGQGTQVTVSS
notes: Alpaca VHH expressed as VHH-hinge-CH2-CH3 of human IgG1; not shown: human IgG1 hinge-CH2-CH3 (Fc)
B12: PVRIG-A118-H1 (Fc fusion)
chain: B10 chain with K58Y, G72D, D73N
notes: VHH-human IgG1 Fc format is stated for the parental VHH antibodies; not restated for the humanized variants; also called A118.VH1; not shown: human IgG1 hinge-CH2-CH3 (Fc)
B13: PVRIG-A118-H2 (Fc fusion)
chain: B10 chain with G72D, D73N
notes: VHH-human IgG1 Fc format is stated for the parental VHH antibodies; not restated for the humanized variants; also called A118.VH2; not shown: human IgG1 hinge-CH2-CH3 (Fc)
B14: PVRIG-A118-H4 (Fc fusion)
chain: B10 chain with Y79S
notes: VHH-human IgG1 Fc format is stated for the parental VHH antibodies; not restated for the humanized variants; also called A118.VH4; not shown: human IgG1 hinge-CH2-CH3 (Fc)
B15: PVRIG-A118-H5 (Fc fusion)
chain: B10 chain with L78V
notes: VHH-human IgG1 Fc format is stated for the parental VHH antibodies; not restated for the humanized variants; also called A118.VH5; not shown: human IgG1 hinge-CH2-CH3 (Fc)
B16: PVRIG-A118-H6 (Fc fusion)
chain: B10 chain with Y59I
notes: VHH-human IgG1 Fc format is stated for the parental VHH antibodies; not restated for the humanized variants; also called A118.VH6; not shown: human IgG1 hinge-CH2-CH3 (Fc)
B17: PVRIG-A118-H7 (Fc fusion)
chain: B10 chain with Y94F
notes: VHH-human IgG1 Fc format is stated for the parental VHH antibodies; not restated for the humanized variants; also called A118.VH7; not shown: human IgG1 hinge-CH2-CH3 (Fc)
B18: PVRIG-A105-H2 (Fc fusion)
chain: EVQLVESGGGLVQPGGSLRLSCAASGRTFDRHTMTWFRQAPGKEREFVATASRIPGDTYYVDSVKGRFTISRDNAKNSLYLQMNSLRAEDTAVYYCAATSAYCSEVDCYEKGSWYDNWGQGTMVTVSS
notes: VHH-human IgG1 Fc format is stated for the parental VHH antibodies; not restated for the humanized variants; also called A105 VH2; not shown: human IgG1 hinge-CH2-CH3 (Fc)
B19: PVRIG-A105 (Fc fusion)
chain: EVQLVESGGGLVQAGGSLRLSCAASGRTFDRHTMTWFRQAPGKEREFVATASRIPGDTYYSHSVKGRFTISRDNAKNTVYLQLNNLKPEDTAVYYCAATSAYCSEVDCYEKGSWYDNWGQGIQVTVSS
notes: as for B11
B20: PVRIG-A105-H3 (Fc fusion)
chain: B18 chain with L79V
notes: VHH-human IgG1 Fc format is stated for the parental VHH antibodies; not restated for the humanized variants; also called A105.VH3; not shown: human IgG1 hinge-CH2-CH3 (Fc)
B21: PVRIG-A105-H3a (Fc fusion)
chain: B18 chain with L79V, C103S, C108S
notes: VHH-human IgG1 Fc format is stated for the parental VHH antibodies; not restated for the humanized variants; also called A105.VH3a; not shown: human IgG1 hinge-CH2-CH3 (Fc)
B22: PVRIG-A105-H4 (Fc fusion)
chain: B18 chain with V61S, D62H
notes: VHH-human IgG1 Fc format is stated for the parental VHH antibodies; not restated for the humanized variants; also called A105.VH4; not shown: human IgG1 hinge-CH2-CH3 (Fc)
B23: PVRIG-A105-H5 (Fc fusion)
chain: B18 chain with T122I, M123Q
notes: VHH-human IgG1 Fc format is stated for the parental VHH antibodies; not restated for the humanized variants; also called A105.VH5; not shown: human IgG1 hinge-CH2-CH3 (Fc)

target: T1, human PVRIG-his (AcroBiosystems, Cat …); test: SPR (BIAcore), antibody captured on Protein A chip, human PVRIG-His analyte
Protocol: Biacore was used to detect the specific binding between anti-PVRIG antibody and human PVRIG protein. Protein A chip was used in the BIAcore assay. The time required for the chip to capture the diluted antibody and saturate the binding antigen to reach Rₘₐₓ (Maximum binding capacity, 50 RU) was measured by manual run. […] The affinity of antibody for antigen was measured by multi-cycle kinetics. In each cycle, the antibodies were injected prior to the injection of gradient concentraions of PVRIG proteins allowing the occurrence of antibody-antigen association and dissociation After each cycle, the Protein A chip was regenerated by Glycine, pH 1.5 (to remove the proteins on the chip). The affinity of antibody for antigen was calculated by BIAcore T200 analysis software.

Row | Binder | Kd [nM] | koff [s⁻¹] | kon [M⁻¹ s⁻¹]
1 | B1 | 0.319 | 0.000651 | 2.04e+06
2 | B2 | 0.278 | 0.000317 | 1.14e+06

target: T2, human PVRIG-mFc protein (Acro, …); test: FACS blocking of PVRIG-mFc binding to CHO-K1-CD112 cells; competitor CD112
Outline: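 Zombie violet-stained CHO-K1-CD112 cells were then added for 30 min at 4° C, followed by PE goat anti-mouse IgG Fc (1:250) and mean fluorescence intensity on a BD Canto II. IC50 and curve AUC came from four-parameter logistic fits (GraphPad Prism 9) and were expressed as percentages of reference antibody values.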

Row | Binder | % AUC to COM701-hIgG4 [%] | % AUC to SO35-hIgG1 [%] | % AUC to parental Ab [%] | % IC50 to COM701-hIgG4 [%] | % IC50 to SO35-hIgG1 [%] | % IC50 to parental Ab [%]
3 | B3 | 115 | 67.8 | 94 | 101 | 78 | 86.1
4 | B4 | 122 | 72.1 | 100 | 117 | 90.6 | 100
5 | B5 | 125 | 73.5 | 102 | 120 | 93 | 103
6 | B6 | 132 | 77.7 | 108 | 122 | 94.7 | 105
7 | B7 | 121 | 71.1 | 98.7 | 115 | 89.1 | 98.4
8 | B8 | 126 | 74.1 | 103 | 130 | 101 | 111
9 | B9 | 112 | 66 | 91.6 | 118 | 91.7 | 101
10 | B10 | 127 | 65.8 | 107 | 146 | 98.8 | 104
11 | B11 | 119 | 61.7 | 100 | 141 | 95.3 | 100
12 | B12 | 120 | 62.4 | 101 | 141 | 95.4 | 100
13 | B13 | 142 | 73.7 | 120 | 161 | 109 | 115
14 | B14 | 116 | 60.4 | 97.9 | 141 | 95.4 | 100
15 | B15 | 127 | 66.1 | 107 | 144 | 97.4 | 102
16 | B16 | 119 | 61.7 | 100 | 145 | 97.8 | 103
17 | B17 | 124 | 64.3 | 104 | 143 | 97.1 | 102
18 | B18 |  |  |  | 109 | 92.3 | 104
19 | B19 | 114 | 65.6 | 100 | 104 | 88.3 | 100
20 | B20 | 109 | 62.9 | 95.8 | 109 | 91.9 | 104
21 | B21 | 3530 | 2040 | 3100 | 3060 | 2590 | 2930
22 | B22 | 112 | 64.6 | 98.4 | 110 | 93.2 | 105
23 | B23 |  |  |  | 110 | 93.4 | 106
